According to patent publication US20230183713A1, “SITE-SPECIFIC RECOMBINASES FOR EFFICIENT AND SPECIFIC GENOME EDITING” (TECHNISCHE UNIVERSITÄt DRESDEN, published 2023):
Where a chain is given by its changes, count along the chain named. Names may count otherwise.

Columns and labels:
[1] = target: T1, Cre recombinase monomer with W315M mutation
T1 chain: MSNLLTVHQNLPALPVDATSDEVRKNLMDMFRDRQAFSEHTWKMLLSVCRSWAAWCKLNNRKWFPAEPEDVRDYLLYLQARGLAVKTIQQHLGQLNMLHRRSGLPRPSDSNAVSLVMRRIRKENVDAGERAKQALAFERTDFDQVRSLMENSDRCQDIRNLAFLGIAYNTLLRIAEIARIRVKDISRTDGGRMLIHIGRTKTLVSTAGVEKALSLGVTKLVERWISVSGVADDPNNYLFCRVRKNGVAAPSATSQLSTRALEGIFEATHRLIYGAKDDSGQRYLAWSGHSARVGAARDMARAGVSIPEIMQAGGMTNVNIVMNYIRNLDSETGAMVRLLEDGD

[2] = target: T2, Cre recombinase monomer with W315N mutation
T2 chain: T1 chain with M315N

[3] = target: T3, Cre recombinase monomer with W315S mutation
T3 chain: T1 chain with M315S

[4] = target: T4, Cre recombinase monomer with Y324C mutation
T4 chain: T1 chain with M315W, Y324C

[5] = target: T5, Cre recombinase monomer with Y324H mutation
T5 chain: T1 chain with M315W, Y324H

[6] = target: T6, Cre recombinase monomer with Y324N mutation
T6 chain: T1 chain with M315W, Y324N

[7] = target: T7, Cre recombinase monomer with Y324Q mutation
T7 chain: T1 chain with M315W, Y324Q

[8] = target: T8, Cre recombinase monomer with Y324S mutation
T8 chain: T1 chain with M315W, Y324S

B1: Cre recombinase monomer with Q311R mutation (protein)
chain: T1 chain with Q311R, M315W
- Median dimer activity (recombination on loxP) [1]: 95%
- Median dimer activity (recombination on loxP) [2]: 64%
- Median dimer activity (recombination on loxP) [3]: 37%
- Median dimer activity (recombination on loxP) [4]: 93%
- Median dimer activity (recombination on loxP) [5]: 76%
- Median dimer activity (recombination on loxP) [6]: 81%
- Median dimer activity (recombination on loxP) [7]: 72%
- Median dimer activity (recombination on loxP) [8]: 81%
